According to publication PMC4004541, “PEG-Like Nanoprobes: Multimodal, Pharmacokinetically and Optically Tunable Nanomaterials” (PLoS ONE, 2014):

How the values were obtained:
[1] = set-up: method as in manufacturer's package insert; settings: humans; ref manufacturer's package insert; cited from earlier work
[2] = Quantum yield of fluorochrome-bearing peptides and PN's; assay type: physicochemical; settings: means±1 S.D.
Description: (The p values showing significances are in Figure S2 in File S1). […] PEG attachment increased quantum yields in all cases, but as discussed below the magnitude of PEG generated improvement varied with the fluorochrome chosen. A mechanism for the PEG improvement of quantum yield is fluorochrome shielding, or the blocking of fluorochrome-fluorochrome interactions that result in quenching.
However, the magnitude of these benefits varied with the fluorochrome selected. […] Previous studies indicated PEGylated, fluorochrome-bearing peptides have absorption spectra in PBS similar to their unstacked absorption spectra in methanol. […] It appears that longer wavelength fluorochromes have stronger fluorochrome/fluorochrome stacking interactions, which result in more quenching, which is blocked by PEG and which gives rise to larger increases in quantum yield.

[3] = Size by dynamic light scattering; assay type: physicochemical; settings: Nano-ZS Zetasizer, z-average
Description: (§1) FPLC chromatograms are shown for PN’s bearing the IR-783 fluorochrome with PEG’s ranging from 2 to 40 kDa ( Figure 2A ). FPLC was calibrated with globular protein standards, and globular protein equivalent molecular volumes (in kDa) were obtained ( Table 1 , column 5). Next, these globular protein equivalent molecular volumes were converted to PN diameters in nm using the relationship: [drawing 1] where M is the molecular weight of a globular protein expressed in daltons. PN diameters ranged from 3.0 to 11.7 nm, which means PN’s can be smaller or larger than albumin (MW = 67 kDa; diameter = 5.4 nm, by the formula above). Thus Table 1 column 5 gives the PN volumes obtained from FPLC expressed in two ways: (i) as the molecular weight in kDa of globular proteins with equivalent volumes, permitting size comparison of PN’s to proteins, and, (ii) as spherical diameters (“Dia.”) in nm, permitting size comparisons of a PN to relative to other nanomaterials. We confirmed the sizes obtained with FPLC by measuring the size of PN(783)11.7 by dynamic light scattering (11.7 nm).
Size by dynamic light scattering: Size was obtained on a Nano-ZS Zetasizer (Malvern, Medford, MA) and is expressed as the z-average.

[4] = tested on: HT-29 cells; experiment: Non-specific binding (NSB) to HT-29 cells by FACS; assay type: cell-based, human; settings: 100 μL of nanoprobes (2 μM) added to 100 μl 2% FBS/DPBS, 30 min at 37 °C, means±1 S.D.
Description: We next examined the non-specific binding (NSB) of PN’s to HT-29 cells based on the assumption that NSB minimization will correlate with a desirable minimization of post-IV injection retention. As noted above, after diagnostic drugs generate their added information, retention can only increase the risks of delayed toxicity. The attachment of PEG decreased the non-specific binding (NSB) to HT-29 cells, scored as the percent of cells above the cutoff for unstained cells seen with FACS ( Table 1 , column 7).
PN and peptide binding to cells (effect of PEGylation on NSB): HT-29, a human colon carcinoma cell line, was from the American Tissue Culture Collection and maintained according to their instructions. Cells were seeded on 24-well plates at 5X10^5 cells/well in culture medium (RPMI 1640 with 10% FBS) the day before the assay. The day of assay, medium was removed, wells rinsed twice with DPBS (+Ca, +Mg), and 100 μl of 2% FBS / DPBS (+Ca, +Mg) added. 100 μL of Nanoprobes (2 μM) in DPBS (+Ca, +Mg) was added to cells and incubated for 30min at 37 °C. (Probe concentrations were determined spectrophotometrically (783 nm, extinction coefficient of 314 471 cm^-1 M^-1 for IR-783; 497 nm, extinction coefficient of 68 000 cm^-1 M^-1 for Fluorescein; 545 nm, extinction coefficient of 150 000 cm^-1 M^-1 for Cy3). Cells were detached by Trypsin/EDTA and assayed for fluorescence by FACS (BD 7 laser LSR2 for nanoprobes with IR-783; BD 3 laser LSR2 for nanoprobes with Fluorescein or Cy3).
Figure S4: Effect of PEGylation on non-specific binding to cells by single channel FACS. […] Arrows indicates the cutoff for unstained cells.

[5] = Probe size (volume) by FPLC calibrated with globular protein standards; assay type: physicochemical
Description: as §1
The mass spec of low molecular weight (MW) materials were obtained by MS-ESI Micromass (Waters) and high MW molecules were determined through MALDI-TOF analyses at the Tufts University Core Facility. RP-HPLC (Varian ProStar detector and delivery modules) employed an eluant A (0.1% TFA/water) and eluant B (0.1% TFA and 9.9% water in acetonitrile). Probe size (volume) was determined by FPLC using an ÄKTA Purifier 10 and SuperdexTM 200 10/300GL column (GE Healthcare) with a running buffer of 0.05 M sodium phosphate, 0.1 M NaCl (0.1% Tween, pH 7.2) and flow rate of 0.8 ml/min. Standards (GE Healthcare) were Ferritin, Ribonuclease A, Carbonic Anhydrase, and Conalbumin and Blue Dextran 2000. To obtain probe volumes, Mr (apparent molecular weight based on size exclusion retention) was plotted versus Kav. [drawing 7] , Vt = total volume, Ve = elution volume, Vo = void volume.
PN and peptide characterization: The mass spec of low molecular weights (MW) were obtained by MS-ESI Micromass (Waters) and high MW molecules were determined through MALDI-TOF analyses at the Tufts University Core Facility. RP-HPLC (Varian ProStar detector and delivery modules) employed an eluant A (0.1% TFA /water) and eluant B (0.1% TFA and 9.9% water in acetonitrile). […] Standards (GE Healthcare) were Ferritin, Ribonuclease A, Carbonic Anhydrase, and Conalbumin and Blue Dextran 2000. To obtain probe volumes, Mr (apparent molecular weight based on size exclusion retention) was plotted versus Kav. [picture] , Vt = total volume, Ve = elution volume, Vo = void volume.

[6] = Elimination by whole animal surface fluorescence imaging; assay type: in vivo; settings: mice, after injection, n = 6
Procedure: Surface fluorescence images for representative animals are shown and total surface fluorescence is quantified in bar graphs to the right of the image. […] The pharmacokinetics and biodistributions of these PN’s is further analyzed below.
Figure 3 Role PEG in determining elimination by surface fluorescence imaging. A) Animals were injected with unPEGylated peptide and imaged at the times indicated. Bar graph gives whole animal surface fluorescence determined as means and standard deviations, n = 6.
(§2) A Kodak FX multispectral imaging system was used (Carestream Molecular Imaging, Rochester, NY). Excitation at multiple wavelengths (620, 650, 690, 710, 720, 730, 750 and 760 nm) with the emission at 830 nm was setup for IR-783 spectrum; Excitation at multiple wavelengths (420, 440, 460, 480, 510, 520, 530, and 540 nm) with the emission at 600 nm was setup for Cy3 spectrum; Excitation at multiple wavelengths (450, 470, 510, 520, 530, 540, 550, 570, and 590 nm) with the emission at 700 nm was setup for mCherry; with manufacturer’s software to separate (unmix) the IR-783 spectrum, Cy3 spectrum, or mCherry spectrum from skin autofluorescence and chlorophyll fluorescence from food. X-ray images were taken after fluorescence images. […]
as §2, with “Whole animal surface fluorescence imaging: All animal experiments in this work were approved by the Institutional Review Committee of the Massachusetts General Hospital. […]” for “A Kodak FX multispectral imaging system was used (Carestream Molecular Imaging, Rochester, NY).”

Row | Compound | Blood half-life [1] [min] | Quant. Yield [2] | Size by dynamic light scattering [3] [nm] | Cell NSB: percent of HT-29 cells above the cutoff for unstained cells [4] [%] | Volume FPLC, globular protein equivalent molecular volume ([5]; FPLC, Superdex 200 10/300GL, 0.05 M sodium phosphate, 0.1 M NaCl (0.1% Tween, pH 7.2), 0.8 ml/min, calibrated with globular protein standards) [kDa] | Volume FPLC Dia. (diameter) ([5]; globular protein equivalent volume from FPLC converted to spherical diameter by formula (ref 15)) [nm] | Elimination seen by whole animal surface fluorescence [6]
1 | CC1(C)C(/C=C/C=C/C=C/C=C2\N(CCCCS(=O)(=O)O)c3ccc4ccccc4c3C2(C)C)=[N+](CCCCS(=O)(=O)[O-])c2ccc3ccccc3c21 [ICG, indocyanine green] | 2.5 to 3 | – | – | – | – | – | –
2 | (DOTA)Lys(PEG40 kDa)-Cys(IR-783) [PN(783)11.7, PEG-like Nanoprobe: 40 kDa PEG, IR-783 fluorochrome, DOTA peptide] | – | 0.16±0.02 | 11.7 | 17±1 | 690 | 11.7 | –
3 | (DOTA)Lys-Cys(IR-783) [unPEGylated DOTA peptide with IR-783 fluorochrome on the cysteine side chain] | – | 0.053±0.008 | – | 95±1 | – | – | slow and incomplete elimination
